Laboratory results reported in the RNAGym collection of RNA variant scans (doi:10.1073/pnas.2313332121).
Fewer inactive variants are shown than the library holds.

B1: TPR 5TU (parent)
chain: GGAUCUUCUCGAUCUAACAAAAAAGACAAAUCUGCCACAAAGCUUGAGAGCAUCUUCGGAUGCAGAGGCGGCAGCCUUCGGUGGCGCGAUAGCGCCAACGUUCUCAACUAUGACACGCAAAACGCGUGCUCCGUUGAAUGGAGUUUAUCAUG

Variants of: B1
Assay: polymerase ribozyme fitness, log enrichment relative to wild type (log ratio); higher = more active; in vitro selection for triplet polymerase activity
Outline: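 For each subunit of a heterodimeric triplet polymerase ribozyme, a mutant library was built by PCR and transcribed, then taken through a single in vitro selection round in triplicate. Selection involved annealing to a biotinylated primer, the partner subunit and triplets, incubation frozen at −7 °C, gel excision of extended constructs, capture on streptavidin beads and RT-PCR. Genotypes were retained after Illumina sequencing of inputs and outputs only with ≥10 input reads and ≥1 read in each output. Fitness is defined as the logarithm of a genotype's enrichment relative to wild-type enrichment, using inverse-variance-weighted averages across replicates, with the logarithm taken to base 2.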

Going from C18U C96G U127C G143A to C18G C85U U101C, the “polymerase ribozyme fitness (log ratio)” value rises from -4.17 to -0.76.

Compared with A19C G70C C103G, A19G A91G C95U C125U is higher in “polymerase ribozyme fitness (log ratio)” value: no more than -4.2 for the first, -4.01 for the second.

Compared with A19G A47G G48A, A19G A40C C93U is higher in “polymerase ribozyme fitness (log ratio)” value: -3.23 for the first, -0.92 for the second.

Going from A19C A21G C57A G58U C72U C85U C103U U134C to A19C C54U G67U C85A, the “polymerase ribozyme fitness (log ratio)” value falls from -0.327 to no more than -4.2.

First: C18U C85G U145A
Second: C18G G83A U145G U151G
The “polymerase ribozyme fitness (log ratio)” value of the first is higher: -1.19 for the first, no more than -4.2 for the second.

C18G C114G A122G and A19C A52G G92C C96A A147C are within 0.2 log units of each other in “polymerase ribozyme fitness (log ratio)” value: -3.64 for the first, -3.53 for the second.

Compared with C18U A40C C57A G126U, A19C C54A C96U A122G G133C is lower in “polymerase ribozyme fitness (log ratio)” value: -0.291 for the first, -2.39 for the second.

C18G G46A G74C U77A U135C and C18U A60G C76U C103G G112U cannot be ordered by “polymerase ribozyme fitness (log ratio)” value: no more than -4.2 for the first, no more than -4.2 for the second.

Compared with A19G A39U U55G A121C, C18U A26U C75G G83A A122U G143A is lower in “polymerase ribozyme fitness (log ratio)” value: -2.95 for the first, -3.81 for the second.

Going from A19G A41C G42C A49C U90C U127A to C18G U61A, the “polymerase ribozyme fitness (log ratio)” value rises from no more than -4.2 to -0.567.

A19C U31A C38A G80A A98U and A19U A21C are within 0.2 log units of each other in “polymerase ribozyme fitness (log ratio)” value: -0.863 for the first, -0.908 for the second.

Going from C18U A142C to A19C C35U C95U, the “polymerase ribozyme fitness (log ratio)” value rises from -0.999 to 0.438.

C18U C57U G86A and C18U U55A are within 0.2 log units of each other in “polymerase ribozyme fitness (log ratio)” value: -1.67 for the first, -1.49 for the second.

A19C C72A A107U G143A and C18U U55A C93A G128A G136A cannot be ordered by “polymerase ribozyme fitness (log ratio)” value: no more than -4.2 for the first, no more than -4.2 for the second.

C18U A91G and C18U A41G C51U A115C G140U are within 0.2 log units of each other in “polymerase ribozyme fitness (log ratio)” value: -3.63 for the first, -3.82 for the second.

First: A19U A40U C54A A60G C96U
Second: A19G U44C U56A C57U C85U C95G
The “polymerase ribozyme fitness (log ratio)” value of the first is higher: -2.61 for the first, no more than -4.2 for the second.

A19G G25U A47C U78C C96A and C18G G42A C54U G94A cannot be ordered by “polymerase ribozyme fitness (log ratio)” value: no more than -4.2 for the first, no more than -4.2 for the second.

First: C18U C85G
Second: C18U C85U
The “polymerase ribozyme fitness (log ratio)” value of the first is lower: -2.3 for the first, -0.241 for the second.

First: A19U A20C G59A A89U C95U G126C
Second: A19U A22G A39C C79G
The “polymerase ribozyme fitness (log ratio)” value of the first is higher: -0.274 for the first, no more than -4.2 for the second.

Going from C18U U55A G81C C93U C105U C118G to A19C A66C G94A U134G, the “polymerase ribozyme fitness (log ratio)” value falls from -1.85 to no more than -4.2.

First: C18U U31A A60G G84C A89C C105U
Second: C18G C72U G86U G88C A150G
The “polymerase ribozyme fitness (log ratio)” value of the first is higher: -2.16 for the first, no more than -4.2 for the second.

Compared with A19G A49C C54A G68A C93A C95A C103U G124A, A19C G62C G84A A89G G117A is higher in “polymerase ribozyme fitness (log ratio)” value: no more than -4.2 for the first, -2.57 for the second.

A19C G65C C69G C85U C87G U102G A121G G124A U139G and A19U A28C A40C A41C U44G C85A A113C cannot be ordered by “polymerase ribozyme fitness (log ratio)” value: no more than -4.2 for the first, no more than -4.2 for the second.

Compared with C18U C96U, A19C G58C C95U G140U is lower in “polymerase ribozyme fitness (log ratio)” value: -0.659 for the first, -3.88 for the second.

A19G A23G G67C C87U and A19C U55A C123G C125A U148G cannot be ordered by “polymerase ribozyme fitness (log ratio)” value: no more than -4.2 for the first, no more than -4.2 for the second.

Compared with C18U A41G C85A U134A, A19G A47C C57A C96U U101G C123U U145A is higher in “polymerase ribozyme fitness (log ratio)” value: -3.02 for the first, -0.877 for the second.

Compared with C18G C93U A98G A120C G141U, C18U A19U A64G A89G A119U U146C is lower in “polymerase ribozyme fitness (log ratio)” value: 0.17 for the first, no more than -4.2 for the second.

First: A19G A73G C85A
Second: A19G A91U
The “polymerase ribozyme fitness (log ratio)” value of the first is higher: -1.82 for the first, no more than -4.2 for the second.

C18U U53A C54U U56A G70A C85U C116U G141C and A19G A21C A30U C38G A41C G48A U77G C93G C114G cannot be ordered by “polymerase ribozyme fitness (log ratio)” value: no more than -4.2 for the first, no more than -4.2 for the second.

First: C18U C36A
Second: C18U A97G C131G
The “polymerase ribozyme fitness (log ratio)” value of the first is lower: -4.01 for the first, -3.22 for the second.

First: C18U G80U U148C
Second: C18U C87G
The “polymerase ribozyme fitness (log ratio)” value of the first is higher: -3.99 for the first, no more than -4.2 for the second.

Going from C18U G65A to A19G U53G A120U, the “polymerase ribozyme fitness (log ratio)” value falls from -1.77 to -2.57.

Going from A19G U148G to A19C A40U G46A, the “polymerase ribozyme fitness (log ratio)” value rises from -3.88 to -0.204.

Compared with C18U A40U G143C, C18G G34U C57U C96U A147U is higher in “polymerase ribozyme fitness (log ratio)” value: -2.98 for the first, -2.53 for the second.

A19C A20C A40G U55C G71U G84A A138U U139A and A19U A37U U44G A66U G92U C96A C123U G124A cannot be ordered by “polymerase ribozyme fitness (log ratio)” value: no more than -4.2 for the first, no more than -4.2 for the second.

A19G G46C A107U A120C C129U and A19G G83A A91C G94C C96G U134G cannot be ordered by “polymerase ribozyme fitness (log ratio)” value: no more than -4.2 for the first, no more than -4.2 for the second.

Going from A19U A20G A66G G80A C87A A107G A110C to C18G C95U, the “polymerase ribozyme fitness (log ratio)” value rises from no more than -4.2 to 0.206.

Compared with A19G G67C G124U, A19C A24U C93U U135C is higher in “polymerase ribozyme fitness (log ratio)” value: no more than -4.2 for the first, -2.84 for the second.

C18U U90G and A19C A60C U102G U109G U151G cannot be ordered by “polymerase ribozyme fitness (log ratio)” value: no more than -4.2 for the first, no more than -4.2 for the second.

Going from C18G U53A C57U G59C U61A C95G to C18U A40C C93A, the “polymerase ribozyme fitness (log ratio)” value rises from -3.99 to -2.24.

A19C U45A G67A and A19C U61A C103A cannot be ordered by “polymerase ribozyme fitness (log ratio)” value: no more than -4.2 for the first, no more than -4.2 for the second.

For C18G U56A, the “polymerase ribozyme fitness (log ratio)” value was -0.693.
